Paper PMC2901922

Key:
Test in all cases: EMSA
λN22 = target: T1, λN22 (bacteriophage λ, UniProt P03045 1-22)
T1 chain: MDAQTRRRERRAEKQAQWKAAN

λN11 = target: T2, λN11 (bacteriophage λ, UniProt P03045 1-11)
T2 chain: MDAQTRRRERR

Acr-Link2-λN22 = target: T3, Acr-Link2-λN22 (bacteriophage λ, UniProt P03045 1-22)
T3 chain: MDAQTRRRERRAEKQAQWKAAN

Measured: binding result

GCCCUGAAAAAGGGC (structured_RNA) [λ boxB 15mer]
binds: λN22 | λN11 | Acr-Link2-λN22
